The values that follow are results of earlier work, collected in PMC1976947.

This data set concerns the target G-CSF receptor (Mus musculus) (UniProt P40223).
UniProt P40223, sequence (P40223 26-837): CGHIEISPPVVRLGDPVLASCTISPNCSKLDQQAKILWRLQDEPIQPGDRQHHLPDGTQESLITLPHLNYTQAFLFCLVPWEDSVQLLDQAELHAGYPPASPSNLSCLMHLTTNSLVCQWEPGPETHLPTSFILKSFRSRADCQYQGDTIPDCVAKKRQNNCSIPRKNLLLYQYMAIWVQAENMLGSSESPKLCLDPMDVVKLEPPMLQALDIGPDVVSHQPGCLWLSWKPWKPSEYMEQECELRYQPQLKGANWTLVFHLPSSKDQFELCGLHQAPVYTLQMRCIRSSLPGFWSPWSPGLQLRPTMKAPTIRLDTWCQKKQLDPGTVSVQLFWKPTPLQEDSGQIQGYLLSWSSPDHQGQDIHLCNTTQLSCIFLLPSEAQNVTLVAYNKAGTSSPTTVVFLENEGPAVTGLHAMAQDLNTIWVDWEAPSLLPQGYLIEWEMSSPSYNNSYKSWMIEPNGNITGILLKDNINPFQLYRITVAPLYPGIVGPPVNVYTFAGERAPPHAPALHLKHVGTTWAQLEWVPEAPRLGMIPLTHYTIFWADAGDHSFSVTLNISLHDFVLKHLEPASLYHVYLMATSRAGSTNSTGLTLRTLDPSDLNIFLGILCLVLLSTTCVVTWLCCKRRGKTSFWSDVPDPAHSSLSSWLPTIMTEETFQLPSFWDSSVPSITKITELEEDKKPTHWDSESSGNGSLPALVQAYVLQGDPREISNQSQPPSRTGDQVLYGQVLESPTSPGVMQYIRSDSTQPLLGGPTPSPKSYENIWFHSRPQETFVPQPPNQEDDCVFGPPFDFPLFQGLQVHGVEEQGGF

G-CSF, sequence (P09919 31-207): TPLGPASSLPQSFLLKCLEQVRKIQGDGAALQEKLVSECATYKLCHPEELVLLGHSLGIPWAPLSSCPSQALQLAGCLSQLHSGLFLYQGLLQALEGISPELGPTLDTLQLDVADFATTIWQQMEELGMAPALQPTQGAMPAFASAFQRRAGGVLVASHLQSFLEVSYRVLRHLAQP

Usually Kd stands for the equilibrium constant for the complex coming apart. On to G-CSF (from UniProt P09919), for which the dissociation constant (Kd) was 0.07 nM.
